The results in this text go back to patent US20190248864A1.

The target of assay [1] is each construct (cells transfected with either wild type or the PCSK9 binding-deficient LDLR mRNAs). The experiment in a line: flow cytometry, half-maximal cell association of BODIPY-LDL on transfected HEK293 cells. A general note: A flow cytometer gives signals particle by particle.
In assay [2] the target is wild type mouse LDLR (mouse) (UniProt P35951). Briefly: cell-based or functional assay.
Assay [3] has as its target mouse LDLR mutant 1 (LDLR_N317A, K832R, C841A) (mouse) (UniProt P35951). The experiment in a line: cell-based or functional assay.

In assay [1], “BODIPY-labeled LDL (low density lipoprotein) (from UniProt P04114 28-4563) (ligand)” registered an EC50 of 0.6 to 0.7 ng/mL.

B1: mouse IDOL (inducible degrader of the LDLR) (enzyme, UniProt Q8BM54 1-445, looked up)
chain: MLCYVTRPDAVLMEVEVEAKANGEDCLNQVCRRLGIIEVDYFGLQFTGSKGESLWLNLRNRISQQMDGLAPYRLKLRVKFFVEPHLILQEQTRHIFFLHIKESLLAGHLQCSPEQAVELSALLAQTKFGDYNQNTAQYSYEDLCEKELSSSTLNSIVAKHKELEGISQASAEYQVLQIVSAMENYGIEWHAVRDSEGQKLLIGVGPEGISICKEDFSPINRIAYPVVQMATQSGKNVYLTVTKESGNSIVLLFKMISTRAASGLYRAITETHAFYRCDTVTSAVMMQYSRDLKGHLASLFLNENINLGKKYVFDIKRTSKEVYDHARRALYNAGVVDLVSRSDQSPPSSPLKSSDSSMSCSSCEGLSCQQTRVLQEKLRKLKEAMLCMACCEEEINSTFCPCGHTVCCESCAAQLQSCPVCRSRVEHVQHVYLPTHTSLLNLTVI
In assay [2], B1 displayed an Average LDLR MCF, HeLa cells, co-transfected with IDOL (with Luciferase: 5773) of 2920 MCF; an Average LDLR MCF, Hepa1-6, co-transfected with IDOL (with Luciferase: 5272) of 881 MCF; an LDLR expression as percent of the baseline, HeLa cells (% of the baseline) of 50.5; an LDLR expression as percent of the baseline, Hepa1-6 (% of the baseline) of 16.7. This molecule displayed an LDLR expression as percent of the baseline, Hepa1-6 cells given no LDLR mRNA (luciferase row of Table 15) (% of the baseline) in assay [2] of 62.3. Moreover, in assay [3], the Average LDLR MCF, HeLa cells, co-transfected with IDOL (with Luciferase: 8369) worked out at 7050 MCF; the Average LDLR MCF, Hepa1-6, co-transfected with IDOL (with Luciferase: 14080) was determined as 8860 MCF; the LDLR expression as percent of the baseline, HeLa cells (% of the baseline) was 84.2; the LDLR expression as percent of the baseline, Hepa1-6 (% of the baseline) was 62.9.

The EC50 is the concentration needed to bring the measured effect to its halfway point.
